Laboratory results: publication PMC5009318, “Structural insights into the IgE mediated responses induced by the allergens Hev b 8 and Zea m 12 in their dimeric forms” (Scientific Reports, 2016)
“And” between values parts separate entries of the source, which are not always exact repeats. Equal values may be shown once.

Biological target: the molecule itself
Assay: SEC; HiLoad 16/60 Superdex 75, 50 mM Tris-HCl pH 7.5; samples incubated 1 week at 4 °C and applied at 10 mg/mL; calibrated with myoglobin, alpha-chymotrypsin and BSA

B1: recombinant profilin allergen rHev b 8 (isoform Hev b 8.0102) from Hevea brasiliensis (natural protein)
chain: MSWQAYVDDHLMCEIEGNHLSAAAIIGQDGSVWAQSANFPQFKSEEITGIMSDFHEPGTLAPTGLYIGGTKYMVIQGEPGAVIRGKKGPGGVTVKKTNQALIIGIYDEPMTPGQCNMIVERLGDYLIDQGY
notes: Cloned in pET28c; The dimer is held by a disulfide bridge between Cys13 of both chains; also called monomeric rHev b 8; dimeric rHev b 8; source: E. coli Rosetta (DE3), purified (Ni-NTA, enterokinase cleavage, mono Q anion exchange; oligomers separated by SEC)
stoichiometry N: 2 and 3 and 4
